From publication doi:10.1101/842088
Read-outs that look alike come from different tables or passages of the source.

What was measured:
Test in all cases: fluorescence polarization
[1] = molecular target: NS3h WT (dengue virus 4, UniProt P09866 1646-2092)
[2] = molecular target: T1, NS3h WT (T7 Shuffle) (dengue virus 4, UniProt P09866 1646-2092)
[3] = molecular target: T1, NS3h WT (T7 Shuffle); remark: listed apart in the source

T1 sequence (P09866 1646-2092): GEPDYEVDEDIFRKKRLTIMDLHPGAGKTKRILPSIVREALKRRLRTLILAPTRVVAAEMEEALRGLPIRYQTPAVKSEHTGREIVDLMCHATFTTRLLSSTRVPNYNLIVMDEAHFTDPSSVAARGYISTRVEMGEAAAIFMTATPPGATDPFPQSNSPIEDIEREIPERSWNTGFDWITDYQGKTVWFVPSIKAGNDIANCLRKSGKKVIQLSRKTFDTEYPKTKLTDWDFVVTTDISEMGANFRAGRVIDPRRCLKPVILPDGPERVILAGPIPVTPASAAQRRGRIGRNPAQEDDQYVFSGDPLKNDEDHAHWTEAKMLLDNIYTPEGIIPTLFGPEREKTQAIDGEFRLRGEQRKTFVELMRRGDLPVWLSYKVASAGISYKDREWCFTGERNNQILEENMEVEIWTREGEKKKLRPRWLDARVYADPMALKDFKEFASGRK
NS3h WT, sequence (P09866 1646-2092): as above

## AGUAA (ssRNA, 5'-diphosphate (pp (so in the source))) [ppAGUAA Alexa-488 RNA oligo]
[1]
  Kd: 1.9 ± 0.8 µM
[2]
  Kd: 3.4 ± 1.4 µM
[3]
  Kd: 4.5 ± 1.5 µM
